Assay: yeast display, Sf9 membrane polyspecificity reagent, FACS + sequencing; frameworks hold sequencing errors
In short: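 In a synthetic yeast display library (Saccharomyces cerevisiae BJ5465), nanobody expression was induced with galactose for 36–48 hours. FACS gates were set low and high (top ~1%) using anti-HA fluorescence for expression and streptavidin fluorescence for binding of the Sf9 membrane reagent. Each polyreactivity label is drawn from the gate of origin.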

Row | Sequence | polyreactivity (PSR sort gate)
1 | QVQLVESGGGLVQAGGSLRLSCAASGNTLAANAMGWYRQAPGKERELVAAITYSGGSTYYADSVKGRFTISRDNSKNTVYLQMNSLKPLDTAVYYCAAEGYYSNYHYWGQGTQVTVSW | low polyreactivity
2 | QVQLVESGGGLVQAGGSLRLSCAASGNTLDAYAMGWYRQAPGKERELVAAITSGGSTYYADSVKGRFTISRDNAKNTVYLQMNSLKPEDTAVYYCNADGHPSDPCYDYWGQGTQVTVSS | low polyreactivity
3 | QVQLVESGGGLVQAGGSLRLSCAASGNTLDAYAMGWYRQAPGKERELVAAITSGGSTYYADSVKGRFTISRDNAKNTVYLQMNSLKPEDTAVYYCNADGHPSDPGYDYWGQGTQVTVSS | low polyreactivity
4 | QVQLVESGGGLVQAGGSLRLSCAASGNTLDVNAMGWYRQAPWKERELVAAITSGGSTNYADSVKGRFTISRDNAKNTVYLQMNSLKPEDTAVYYCAKGSGVTYVNETLNTDYGYWGQGTQVTVSS | low polyreactivity
5 | QVQLVESGGGLVQAGGSLRLSCAASGNTLIVNAMGWYRQAPGKERELVAAITRDGRTNYADSVKGRFTISRDNAKNTFYLQMNSLKPEDTAVYYCNALSADWFPEEDYWGQGTQVTVSS | low polyreactivity
6 | QVQLVESGGGLVQAGGSLRLSCAASGNTLIVNAMGWYRQAPGKETELVAAITRDGRTNYADSVKGRFTISRDNAKNTVYLQMNSLKPEDTAVYYCAAEGVPDALDRDYWGQGTQVTVSS | low polyreactivity
7 | QVQLVESGGGLVQAGGSLRLSCAASGNTLTPYTMGWYRQAPGKERELVAAINRSGGSTYYADSVKGRVTISRDNGKNTVYLQMNSLKPEDTAVYYCAAFGYYNFGYYYWGQGSQVTVSS | high polyreactivity
8 | QVQLVESGGGLVQAGGSLRLSCAASGNTLTYNVMGWYRQGPGKERELVAAISGRGGRTYYADSVKGRFTISRDNAKNTVYLQMNSLKPEATAVYDCATRDRAGYYYWGQGTQVTVSS | high polyreactivity
9 | QVQLVESGGGLVQAGGSLRLSCAASGNTLWRNAMGWSRQAPGKERELVATISSVGTYYADSVKGRFTISRDNAKNTVYLQMNSLKPEDTAVYYCAARIWAFYSRRYYWGQGTQVTVSS | high polyreactivity
10 | QVQLVESGGGLVQAGGSLRLSCAASGNTLYRNALGWYRQAPGKERELVAAIRLSGGSTYYADSVKGRFTISRDNAKNTVYLQMNSLKPEDTAVYYCAVRIRYYTGFYSWGQGTQVTVSS | high polyreactivity
11 | QVQLVESGGGLVQAGGSLRLSCAASGNTSPFYAMGWYRQAPGKERELVAAISANGGSTTYADSVKGRFTISRDNAKNTVYLQMNSLKPEDTALYYCNALSLLSDGAASVDQVTFDYWGQGTQVTVSS | low polyreactivity
12 | QVQLVESGGGLVQAGGSLRLSCAASGNTVFKNAMVWYRQAPGKERELVAAISKRGGSTYYADSVKGRFTISRDNAKNTVYIQMNSLIPEDTAVYYCAADTFGVYASTYDYWGQGTQVTVSS | high polyreactivity
13 | QVQLVESGGGLVQAGGSLRLSCAASGPIFDGYVMGWYRQAPGKERELVAAISKSGARTYYADSVKGRFTISRDNAKNTVYLQMNSLKPEHTAVYYCARFSGVDNAYDYWGQGTQVTVSS | high polyreactivity
14 | QVQLVESGGGLVQAGGSLRLSCAASGPIFKRNDMGWYRQSHGKERELVAAISGSGGRTYYADSLKGRFTISRDNAKNTVYLQMNSLKPEDTAVYYCNAGGSYYARGMDYWGQGTQVTVSS | high polyreactivity
15 | QVQLVESGGGLVQAGGSLRLSCAASGPIFRGYAMGWYRQAPGKERELVARITSGGRTYYADSVKGRFTISRDNAKNTVYLQMNSLKPEDTAVYYWATVGRGYDERHNYWGQGTQVTVSS | high polyreactivity
16 | QVQLVESGGGLVQAGGSLRLSCAASGPIFVHNAKGWYRQAPGTERELVAAISWRATRTYYADSVKGRFTISRDNAKNTVYLQMNSLKPEDTAVYYCAAVTPAYSTSTSSYDYWGQGTQVTVSS | high polyreactivity
17 | QVQLVESGGGLVQAGGSLRLSCAASGPTFLYNAMGWYRQAPGKERELVAAISRSAVSTYYADSVKGRFTISRDNAKNTVYLQINSLKPDDTAVYYCSADYRGRYATYRSYASVLYDYWGQGTQVTVSW | low polyreactivity
18 | QVQLVESGGGLVQAGGSLRLSCAASGPTFPFNAMGWYRQAPGKERELVAAISWRDGRTYYADSVKGRFTISRDYAKNTVYLQMNSLKPEDTAVYYCNVVKRRSDWGMDYWGQGTQVTVSS | high polyreactivity
19 | QVQLVESGGGLVQAGGSLRLSCAASGPTFPVKSMGWYRQAPGKERELVAAISWRDGRTYYADSVKGRFTISRDNAKNTVYLQMNSLKPEDTAVYYCNVVKRRSDWGMDYWGQGTQVTVSS | high polyreactivity
20 | QVQLVESGGGLVQAGGSLRLSCAASGPTFSQNVMGWYRQAPGKERELVAGISSGDITDYADSVKGRFTISRDNAKNTVYLQMNSPKPEDTAVYYCTYYGKSGGYRYTYYYWGQGTQVTVSS | high polyreactivity
21 | QVQLVESGGGLVQAGGSLRLSCAASGRFFRYNAMGWYRQAPGKERELVAAIRYSGTSTYYADSVKGRFTISRDNAKNTVYFQMNSLKPEDTAVYYCAAYKRYYYGYDYWGQGTQVTVSS | high polyreactivity
22 | QVQLVESGGGLVQAGGSLRLSCAASGRIDAYYAMGWYRQAPGKERELVAGISQRGSRTYYADSVKGRFTISRDNAKNTVYLQMNSLKPEDTAVYYCAARDRRSVTMDYWGQGTQVTVSS | high polyreactivity

Row | Sequence | polyreactivity (PSR sort gate)
23 | QVQLVESGGGLVQAGGSLRLSCAASGRIFAAYAMGWYRQAPGKERELVAAISWSGANTYYADSVKGRFTISRDNAKNTVYLQMNSLKPEDTAVYYCATLSKSYGVRRYKSDYWGQGTQVTVSS | high polyreactivity
24 | QVQLVESGGGLVQAGGSLRLSCAASGRIFADNAMGWYRQAPGKERELVATISRNGGRTSYADSVKGRFTISRDNAKNTVYLQMNSLNPEVTAVYYCAVRAPGSSEGYYWGQGSQVTVSS | low polyreactivity
25 | QVQLVESGGGLVQAGGSLRLSCAASGRIFAFYALGWYIQAPGKERELVAAISWSDDITYYADSVKGRFTISRDNAKNTVYSQMNSLKPEDTAVYYCAYRRRGYAFSSDYWGQGTQVTVSS | high polyreactivity
26 | QVQLVESGGGLVQAGGSLRLSCAASGRIFAGYAMGWYRQAPGKERELVAAISDGGTTNYADSVKGRFTISRDNAKNTVYLQMNSLKPEDTAVYYCAAKSRTYQSYYYWGQGTQVTVSS | low polyreactivity
27 | QVQLVESGGGLVQAGGSLRLSCAASGRIFAHNAMGWYRQAPGKERELVAAINSGGSTRYADSVKGRFTISRDNAKNTVYLQMNSLKPEDTAVYYCARGPKGYYFARYGYWGQGTQVTVSS | high polyreactivity
28 | QVQLVESGGGLVQAGGSLRLSCAASGRIFAHYAMGWYRQAPGKERELVADITDGGSTYYADSVKGRFTISRDNAKNTVYLQMNSLKPEDTAVYYVATRRGPWPSEYDSWGQGTQVTVSS | low polyreactivity
29 | QVQLVESGGGLVQAGGSLRLSCAASGRIFAIYAMGWYRQAPGKERELVAGITYSAGSTYYADSVKGRFTISRDNAKNTVYLQMNSLKPEDTAVYYCAALEYNSHRYGYDYWGQGTQVTVSS | low polyreactivity
30 | QVQLVESGGGLVQAGGSLRLSCAASGRIFAKNAMGWYRQAPGKERELVAAINHSGGSTYYADSVKGRFTISRDNAKNTVYLQMNSLKPEDTAVYYCAARGLTTRSPFYYWGQGTQVTVSS | high polyreactivity
31 | QVQLVESGGGLVQAGGSLRLSCAASGRIFAPKAMGWYRQAPGKERELVADINFSGDSTYYADSVKGRFTISRDNAKNTVYLQMNSLKPEDTAVYYCAADISLVSYYYWGQGTQVTVSS | low polyreactivity
32 | QVQLVESGGGLVQAGGSLRLSCAASGRIFAPYAKGRYRQAPGKERELVAAIRWRGGSTSYADSVKGRFTISRDNAKNTVYLQLNSLKPEDSAVYSCNADYGFSFYWYDYWGHGTQVTVSS | low polyreactivity
33 | QVQLVESGGGLVQAGGSLRLSCAASGRIFARNAMGWYRQAPGKEREFVAAITHSGGNTYYADSVKGRFTISRDNAKNTVYLQMNSLKPEATAVYYCAKDYRSTKYDYWGQGTQVTVSS | low polyreactivity
34 | QVQLVESGGGLVQAGGSLRLSCAASGRIFASNAMGWYRQAPGKERELVAGISRNGGSTFYADSVKGRFTISRDNAKNTVYLQMNSLKPEDTAVYYCARYYTHSGGYRDRIYYYWGQGTQVTVSS | low polyreactivity
35 | QVQLVESGGGLVQAGGSLRLSCAASGRIFASYAMGWYRQAPGKERELVAAISAGGGSRTYYADSVKGRFTISRDNAKNTVYLQMNSLKPEDTAVYYCNTANSWLRQYYYWGQGTQVTVSS | high polyreactivity
36 | QVQLVESGGGLVQAGGSLRLSCAASGRIFATNAMGWYIQAPGKERELVAAISWDGGSTYYADSVKGRFTISRDNAKNTVYLQMNSLKPEDTAVYYCNKVLYYAYDYWGQGTQVTVSS | low polyreactivity
37 | QVQLVESGGGLVQAGGSLRLSCAASGRIFAVNALGWYRQAPGPERELVATIRGSGTSTYYADSVKGRFTISRDHATNTVYLQMNSLKPEDTAVYYCAKAYNGRYTWRYDYWGQGTQVTVSS | high polyreactivity
38 | QVQLVESGGGLVQAGGSLRLSCAASGRIFAVNTMGWYRQAPGKEREFVAAISDSGGGTYYADSVKGRFTISRDNAKKTVYLQMNSLKPEDTAVYYCNAKGQRSPYSKLEYWGQGTQVTVSS | high polyreactivity
39 | QVQLVESGGGLVQAGGSLRLSCAASGRIFAVYAMGWYRQAPGKERELVAAISWSGGRTYYADSVKGRFTISRDNAKNTVYLQMNSLKPEDTAVYYCNRTPTGSYLYGMDYWGQGTQVTVSS | high polyreactivity
40 | QVQLVESGGGLVQAGGSLRLSCAASGRIFAWDAMGRYRQAPGKERELVAAITWGGGRTYYADSVKGRFTISRDNAKNTVYLQMNSLKPEDTAVYYCAAYSYKEEAYRGVAQERDYWGQGTQVTVSS | low polyreactivity
41 | QVQLVESGGGLVQAGGSLRLSCAASGRIFAWYAMGWYRQSPGKESELVAAISDSGGSTYYADSVKGRFTISRDNAKNTVYLQMNSLKPEDTAVYYCAADQVVYSAYWSDHYDYWGQGTQVTVSS | low polyreactivity
42 | QVQLVESGGGLVQAGGSLRLSCAASGRIFAYNAMGWYREAPGKERELVASITSGGGRTYYADSVKGRFTISRDNAKNTVYLQMNSLKPEDTAVYYCNVDVSLSKFGSVLYDYWGQGTQVTVSS | low polyreactivity
43 | QVQLVESGGGLVQAGGSLRLSCAASGRIFAYNTMGWYRQAHGKEREFVAVITSGGSTNYADSVKGRFTISRDNAKNTVFLLLNSLKPEDTAVYYCAKRPYGRSGGSRYDYWGQGTKVTVSS | high polyreactivity

Source: the nanobody polyreactivity screen of Harvey et al. (2022)
